Measured values published in patent US12366576B2, “Compositions, assays, and methods for direct modulation of fatty acid metabolism” (Dana-Farber Cancer Institute, Inc., priority 2016, dated 2025).
Bridge positions count the residues as written; N and C are the ends. Square brackets hold non-standard residues; d marks the D form. Ends that are not written are not given here. * marks the point of attachment. Biotin = O=C1N[C@H]2[C@H](CS[C@H]2CCCCC(=O)*)N1; S5 = C=CCCC[C@](C)(N)C(=O)O

Tests used:
[1] = system: endogenous MCL-1; test: Biotinylated SAHB pulldown from MEF lysates, anti-MCL-1 Western analysis; type: binding, mouse; conditions: wild-type MEF lysates, 15 nmol biotinylated SAHB
Experimental: An exploratory proteomics analysis was conducted to identify proteins that interact with the MCL-1 BH3 domain helix. An extensive library of MCL-1 stapled BH3 peptides (FIG. 2) was generated to both identify novel protein interactors by mass spectrometry and then deploy the stapled peptide constructs as novel probes to dissect and pharmacologically modulate the identified protein interactors and associated signaling pathways. As an example, an N-terminally biotinylated stapled peptide designed based on the sequence of MCL-1's BH3 domain (Btn-MCL-1 SAHBD), or vehicle, was incubated with wild-type mouse embryonic fibroblast (MEF) lysates, followed by high stringency streptavidin capture. To validate the proteomics workflow and ensure that Btn-MCL-1 SAHBD could, in fact, engage protein interactors in a lysate, eluates were first run on a gel for anti-MCL-1 Western analysis. […] For mass spectrometry (MS) analysis, eluates were run on a reducing/denaturing gel followed by Coomassie staining (FIG. 4) and in-gel digestion was performed before injection on the instrument.
The binding determinants for the MCL-1 BH3/VLCAD interaction were investigated by generating a series of biotinylated MCL-1 SAHBD alanine point mutants (FIG. 18A) and performing streptavidin pull-downs from MEF lysates, followed by VLCAD and MCL-1 western analysis of the resulting eluates. […] Native alanines and residues not mutated are colored white.
Wild-type MEFs were trypsinized, washed once with cold PBS, and lysed on ice with NP-40 lysis buffer (50 mM Tris, pH 7.4, 150 mM NaCl, 0.5% (v/v) NP-40, complete protease inhibitor pellet (Roche)) using 1 ml of lysis buffer for every 10 million cells lysed. Cellular debris was pelleted at 14,000 g for 10 min at 4° C., and the supernatant was quantified using the BCA Protein Assay Kit (Thermo Fisher Scientific). 2 mg of lysate per pulldown were then exposed to 50 μL of pre-equilibrated High Capacity Streptavidin Agarose beads (Thermo Fisher Scientific). […] The beads were then pelleted and washed with NP-40 lysis buffer three times before eluting the protein sample from the beads by heating at 70° C. for 10 min in SDS loading buffer. Samples were then subjected to electrophoresis and either Western analysis or Coomassie stain (SimplyBlue Safe Stain, Thermo Fisher Scientific). […] Coomassie stained gels were then processed for proteomics analysis (see below). Biotinylated SAHB pulldowns of recombinant protein were performed as above incubating 5 nmol of SAHB with 10 pmol of rVLCAD in 500 μL total volume. Densitometry analyses were performed using ImageJ software.

[2] = biological target: T1, VLCAD (Homo sapiens, UniProt P49748); test: Biotinylated SAHB pulldown of recombinant protein; type: binding; conditions: 5 nmol SAHB with 10 pmol rVLCAD
T1 construct: 10x His (N); made in house; host or cells: E. coli BL21(DE3), pET19b
T1 sequence (P49748 40-655): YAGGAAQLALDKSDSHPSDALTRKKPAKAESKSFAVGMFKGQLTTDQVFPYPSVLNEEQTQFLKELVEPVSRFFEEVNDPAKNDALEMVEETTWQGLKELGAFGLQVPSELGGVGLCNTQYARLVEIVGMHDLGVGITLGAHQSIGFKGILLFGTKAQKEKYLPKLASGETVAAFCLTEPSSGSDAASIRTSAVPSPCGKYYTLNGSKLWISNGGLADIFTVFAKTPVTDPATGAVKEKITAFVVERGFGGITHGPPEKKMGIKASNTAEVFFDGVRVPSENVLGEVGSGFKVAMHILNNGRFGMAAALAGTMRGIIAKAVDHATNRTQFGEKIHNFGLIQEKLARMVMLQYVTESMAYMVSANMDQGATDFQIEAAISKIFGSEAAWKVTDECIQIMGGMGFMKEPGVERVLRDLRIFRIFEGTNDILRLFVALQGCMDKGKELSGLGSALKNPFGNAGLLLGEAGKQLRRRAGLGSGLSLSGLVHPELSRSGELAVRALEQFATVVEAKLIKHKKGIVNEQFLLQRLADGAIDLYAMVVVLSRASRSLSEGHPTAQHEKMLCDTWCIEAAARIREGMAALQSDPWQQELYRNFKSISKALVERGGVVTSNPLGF
Description: To validate the MS result, the pulldowns were repeated and eluates run on a gel for anti-VLCAD Western blot analysis. […] All peptides faithfully recapitulated native BH3-binding propensities for endogenous MCL-1 protein (FIG. 8). The eluates were then probed for the other members of the acyl-CoA dehydrogenase family that manifest shorter fatty acid substrate specificities. MCL-1 SAHBD was able to pull down VLCAD, but not MCAD or SCAD (FIG. 9). Because the traditional MCL-1 staple location differs from that of the BIM, BID, and BAD SAHBs, it was important to confirm that the observed VLCAD binding specificity was due to BH3 sequence selectivity, not staple position. A BIM SAHB with the traditional MCL-1 staple (BIM SAHBF), and a MCL-1 stapled peptide with the traditional BIM staple (MCL-1 SAHBA), were generated. […]
Wild-type MEFs were trypsinized, washed once with cold PBS, and lysed on ice with NP-40 lysis buffer (50 mM Tris, pH 7.4, 150 mM NaCl, 0.5% (v/v) NP-40, complete protease inhibitor pellet (Roche)) using 1 ml of lysis buffer for every 10 million cells lysed. Cellular debris was pelleted at 14,000 g for 10 min at 4° C., and the supernatant was quantified using the BCA Protein Assay Kit (Thermo Fisher Scientific). […]

[3] = biological target: T2, MCL-1ΔNΔC (Homo sapiens, UniProt Q07820); test: Biolayer interferometry; type: binding; conditions: Biotin-PEG peptide immobilized on streptavidin sensors
T2 construct: The MCL-1ΔNΔC construct was grown and expressed in E. coli as previously described; made in house; host or cells: E. coli BL21(DE3)

[4] = biological target: T2, MCL-1ΔNΔC; test: 19F NMR binding study with fluorinated SAHB; conditions: fluorinated SAHB 25 μM, MCL-1ΔNΔC 0-45 μM
Experimental: (§1) To measure the direct binding interaction, ^19F NMR binding studies were conducted using fluorinated analogs of MCL-1 SAHBD. […] Both SAHBs, however, bind MCL-1ΔNΔC, as illustrated by a chemical shift of the peptide NMR peak in both cases (FIG. 15). […] To perform these experiments, N-terminal Btn-PEG analogs of the peptides were immobilized onto streptavidin probes that were then placed into protein solutions at a variety of concentrations to measure ligand-target association.
MCL-1ΔNΔC. The MCL-1ΔNΔC construct was grown and expressed in E. coli as previously described (see, e.g., Stewart, Nat Chem Biol., 6(6):595-601 (2010)). Transformed BL21(DE3) E. coli were grown at 37° C. to an OD of 0.8, after which they were induced with 0.5 mM IPTG. […]
(§2) To determine binding of SAHBs to VLCAD, fluorinated SAHB (25 μM) and VLCAD (0-125 μM) were mixed together in VLCAD FPLC buffer including 10% D2O to a final volume of 500 μL. […] The extent to which VLCAD bound the peptide was determined by measuring the peak width at half height (ν1/2) of the peptide ^19F signal. […] MCL-1ΔNΔC binding to SAHBs causes a change in the ^19F chemical shift of the peptide resulting in two peptide signals (instead of peak broadening), so extent of binding was quantified by measuring the peak height of “unbound” peptide relative to the bound peptide signal.

[5] = biological target: T1, VLCAD; test: 19F NMR binding study with fluorinated SAHB; conditions: fluorinated SAHB 25 μM, VLCAD 0-125 μM
Experimental: as §1
VLCAD. Mature human VLCAD lacking its cleavable leader sequence (aa 40-655) (NP_000009.1) was subcloned into the pET19b vector (Novagen) using NdeI and XhoI restriction sites. Correct insertion was confirmed by DNA sequencing. […]
as §2

[6] = biological target: T1, VLCAD; test: Biolayer interferometry; type: binding; conditions: Biotin-PEG peptide immobilized on streptavidin sensors
Experimental: as §1
VLCAD. Mature human VLCAD lacking its cleavable leader sequence (aa 40-655) (NP_000009.1) was subcloned into the pET19b vector (Novagen) using NdeI and XhoI restriction sites. Correct insertion was confirmed by DNA sequencing. The 10× His-tagged VLCAD construct was expressed in BL21(DE3) E. coli, and once cells reached an OD of 0.8 after growing at 37° C., they were induced with 0.5 mM […] (IPTG) (Gold Biotechnology I2481C) at 37° C. for 4 hours. Bacterial pellets were resuspended in lysis buffer (500 mM NaCl, 50 mM HEPES, 5% glycerol, pH 7.5, complete protease inhibitor tablet) and lysed by microfluidization (M-110L; Microfluidics). […]
BLI binding measurements were performed using an Octet Red384 System (ForteBio). […] Binding parameters were calculated using the accompanying Octet Software version 9 (ForteBio).

T2 sequence (Q07820 172-320 limits assumed, stated change not applied): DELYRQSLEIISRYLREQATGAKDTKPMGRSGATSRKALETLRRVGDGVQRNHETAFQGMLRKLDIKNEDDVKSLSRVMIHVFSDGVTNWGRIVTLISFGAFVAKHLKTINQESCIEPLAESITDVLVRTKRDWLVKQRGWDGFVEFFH
endogenous MCL-1, sequence (P97287 152-308 limits assumed): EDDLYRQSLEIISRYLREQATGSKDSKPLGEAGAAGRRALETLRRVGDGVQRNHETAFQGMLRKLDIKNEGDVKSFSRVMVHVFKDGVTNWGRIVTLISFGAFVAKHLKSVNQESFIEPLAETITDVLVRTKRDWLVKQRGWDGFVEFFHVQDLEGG

Row | Substance | pull down of endogenous MCL-1 from cellular lysates [1] | pull down of recombinant VLCAD [2] | biolayer interferometry association with MCL-1 [3] | 19F NMR binding to MCL-1ΔNΔC (chemical shift of the peptide peak) [4] | 19F NMR peptide peak broadening on VLCAD titration [5] | biolayer interferometry association with VLCAD [6]
1 | Btn-MCL-1 SAHBD: N-terminally biotinylated stapled peptide designed based on the sequence of MCL-1's BH3 domain (Biotin-RKALETLRRVGDGV[S5]RNH[S5]TAF; staple 15-19) | readily identified in the eluates | pulled down recombinant VLCAD | – | – | – | –
2 | MCL-1 SAHBB: MCL-1 SAHB containing a different staple position (RKAL[S5]TLR[S5]VGDGVQRNHETAF; staple 5-9) | – | – | bind to MCL-1 | binds directly | little to no peak broadening | no detectable binding interaction
